Measurements: patent US20260069679A1

Tests used:
[1] = molecular target: SS-L6-Aferr; test: BLI, 1:1 fit
[2] = molecular target: SS-L6-LuS; test: BLI, 1:1 fit
[3] = molecular target: SS\u0394G4Loop-L6-LuS (MERS-CoV EMC/2012 spike stem fused to Aquifex aeolicus lumazine synthase); test: BLI, 1:1 fit
[4] = molecular target: SS\u0394G4Loop-L6-Aferr (MERS-CoV EMC/2012 spike stem fused to human apoferritin); test: BLI, 1:1 fit
[5] = molecular target: SS-L2-LuS (MERS-CoV EMC/2012 spike stem fused to Aquifex aeolicus lumazine synthase); test: BLI, 1:1 fit
[6] = molecular target: SS-L2-LuS (MERS-CoV EMC/2012 spike stem fused to Aquifex aeolicus lumazine synthase)
[7] = molecular target: MERS SS delG4loop Nanoparticle; test: BLI sensorgrams, six curves without concentration labels, time axis 0-500 s
[8] = molecular target: MERS SS Nanoparticle (NP)

Substance | Kd [1] [nM] | kon [1] [M⁻¹ s⁻¹] | Kd [2] [nM] | kon [2] [M⁻¹ s⁻¹] | Kd [3] [nM] | kon [3] [M⁻¹ s⁻¹] | Kd [4] [nM] | kon [4] [M⁻¹ s⁻¹] | Kd [5] [nM] | kon [5] [M⁻¹ s⁻¹] | maximum binding [6] [nm] | Kd [7] [pM] | Kd [8] [pM]
CC40.8 (antibody) | 1.97 | 268000 | 1.85 | 219000 | 2.28 | 218000 | 2.73 | 184000 | 0.748 | 315000 |  |  | 
G4 (antibody) | 0.00302 | 155000 | 0.0046 | 133000 | 0.00347 | 147000 | 0.00282 | 229000 | 0.00178 | 270000 | 1.3 | 3 | 1.7
